In the supplement of paper PMC10567573 one finds protein stability index data, which are given here for 72 sequences.

± gives the standard deviation.

The data set can be described thus: protein stability index of a GFP-peptide fusion (GPS, HEK-293T) (PSI 1-6); higher = more stable.
Where [1] appears, read: treatment: DMSO, c terminus: a fixed tail appended.
Setting [2] is: treatment: MLN4924 1 uM, 8 h, c terminus: a fixed tail appended.
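Also: 24-mer peptide tiles fused after GFP, lentivirally expressed, FACS-sorted into six equal bins by GFP/DsRed ratio, decoded by Illumina sequencing, PSI is the read-weighted mean bin number.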

In turn, SISKLSPFSEFFKLRFNRKKKGMY [PWWP2B] gave a protein stability index under setting [1] of 2.06 ± 0.25 and a protein stability index under setting [2] of 2.31 ± 0.19.

Regarding SKRKAETWKKNRRQLAYSTVGTPD [STK38L], the protein stability index under setting [1] turned out to be 4.02 ± 0.41 and the protein stability index under setting [2] is 4.33 ± 0.5.

For SKYQLSEAQLSLIRDIRRRGKNKM [NFE2L1], the protein stability index by setting is: under setting [1], 3.69 ± 0.28; under setting [2], 3.9 ± 0.54.

As for SLCNLEESITSAGRDDLESFQLEI [FAM98B], the protein stability index is 3.26 ± 0.16 under setting [1] and 3.45 ± 0.19 under setting [2].

Take SLCVLVSTVGKLCRLINEDVNEQV [CEP70]: the protein stability index amounted to 3.25 ± 0.48 under setting [1] and 2.96 ± 0.21 under setting [2].

In the case of SLGSALKPGEGRSALFAGNEWRRP [TRIM29], the protein stability index runs as follows: under setting [1], 3.46 ± 0.26; under setting [2], 3.31 ± 0.21.

SLHKGAKRKGIKSSIGRLFGKKEK [PPFIA4]: the protein stability index came to 3.6 ± 0.46 under setting [1] and 3.73 ± 0.18 under setting [2].

For SLIFSLKNEVGGLIKALKIFQEKH [TPH1], the protein stability index under setting [1] turned out to be 2.07 ± 0.23 and the protein stability index under setting [2] worked out at 2.75 ± 0.82.

As for SLKEEHRAYDLLRAASENSQDALR [IKZF1], the protein stability index by setting is: under setting [1], 4.32 ± 0.52; under setting [2], 4.36 ± 0.34.

Consider SLSNAVANTMEHLSLLDNNIPGNS [FBXO33], for which the protein stability index by setting is: under setting [1], 3.64 ± 0.092; under setting [2], 3.94 ± 0.28.

SMKGSCGIGGGIGGGSSRISSVLA [KRT16]: the protein stability index is, setting by setting: under setting [1], 2.54 ± 0.42; under setting [2], 2.64 ± 0.33.

Regarding SMNWGINLLISLTFLTVTDLIGLP [SLC2A12], the protein stability index stood at 3.3 ± 0.18 under setting [1] and 3.02 ± 0.12 under setting [2].

SMSTRRLGVAVAVLGGFLYAVGGS [KLHL20]: the protein stability index reads like this: under setting [1], 2.29 ± 0.42; under setting [2], 2.67 ± 1.2.

Sequence SNFNYFYHRETEGEEQAQLLHVSS [KCNA1] gave a protein stability index under setting [1] of 3.95 ± 0.12 and a protein stability index under setting [2] of 4.03 ± 0.34.

Take SNHSWNTQTWCTQSWNNQAWNSPF [NANOGP8]: the protein stability index under setting [1] was determined as 2.24 ± 0.23 and the protein stability index under setting [2] came to 2.19 ± 0.18.

Consider SNVSSSGSINLLESPQLATLAEDV [MAP2], for which the protein stability index under setting [1] is 5.03 ± 0.22 and the protein stability index under setting [2] was found to be 5.17 ± 0.24.

Take SPDILEEKHCEFKQLALDHFKKTK [ATL3]: the protein stability index came out at 4.79 ± 0.23 under setting [1] and 4.79 ± 0.12 under setting [2].

Consider SPPDQPAVPHPPPSTPIKLEEGDG [ADD1], for which the protein stability index runs as follows: under setting [1], 5.56 ± 0.2; under setting [2], 5.62 ± 0.18.

Take SPPSSSAASSYSFSDLNSTRGDAD [EMD]: the protein stability index is 5.12 ± 0.29 under setting [1] and 4.98 ± 0.2 under setting [2].

Consider SQEESEEGEEDATSEVDKRRTRPR [CHGB], for which the protein stability index by setting is: under setting [1], 5.57 ± 0.33; under setting [2], 5.59 ± 0.2.

SRQLLPGDEFSLREHELLCRADHG [ISL2]: the protein stability index came to 4.19 ± 0.17 under setting [1] and 4.27 ± 0.089 under setting [2].

As for SRVLQNGGDKLETMPLYLEDDIRP [SCD], the protein stability index turned out to be 4.66 ± 0.23 under setting [1] and 4.53 ± 0.21 under setting [2].

In the case of SSAVSGVKEWFGLGGEQAEEKAFE [MIA2], the protein stability index was determined as 5.09 ± 0.43 under setting [1] and 5.04 ± 0.19 under setting [2].

With SSDSVGGFRYSERYDPEPKSKWDE [CLINT1], the protein stability index came to 4.98 ± 0.29 under setting [1] and 4.95 ± 0.091 under setting [2].

As for SSFFFSGVFVGVISFGQLSDRFGR [SLC22A15], the protein stability index runs as follows: under setting [1], 2.96 ± 0.94; under setting [2], 3.021 ± 0.018.

Consider SSGKNVTLLVCGKKAYDYFQAKKI [PDZK1], for which the protein stability index runs as follows: under setting [1], 2.13 ± 0.26; under setting [2], 2.57 ± 0.82.

Sequence SSGPGNSQNSFLVQEVMEEEWNAL [RPAIN] registered a protein stability index under setting [1] of 4.88 ± 0.2 and a protein stability index under setting [2] of 4.92 ± 0.25.

Turning to SSMKKFCRPLLPSCTTRLCQEEQL [PSD2], the protein stability index is 2.88 ± 0.29 under setting [1] and 2.98 ± 0.15 under setting [2].

Turning to SSQKQHSFTSSDKTIKSFFPHSGK [C8orf76], the protein stability index is, setting by setting: under setting [1], 3.9 ± 0.085; under setting [2], 4.15 ± 0.14.

As to SSRGAPRGGGRGGSRSDRGGGRSR [RBMX], the protein stability index by setting is: under setting [1], 5.34 ± 0.18; under setting [2], 5.45 ± 0.28.

For SSSSGVLMVGPNFRVGKKIGCGNF [CSNK1G3], the protein stability index runs as follows: under setting [1], 2.71 ± 0.38; under setting [2], 2.71 ± 0.21.

Take SSSYSPETFRQQFRQFGYQDSPGP [ZNF396]: the protein stability index amounted to 3.48 ± 0.23 under setting [1] and 3.24 ± 0.21 under setting [2].

Take SSTLNPSTSSSTQGDPAFPEMNGN [NOL4L]: the protein stability index runs as follows: under setting [1], 5.44 ± 0.25; under setting [2], 5.44 ± 0.2.

For SSWPFSIQDVVQPLTLQVQRPLVS [AUP1], the protein stability index runs as follows: under setting [1], 2.77 ± 0.32; under setting [2], 3.03 ± 0.2.

Turning to STHQEAENEKDRADQTVLTEDEKK [CHGB], the protein stability index runs as follows: under setting [1], 5.35 ± 0.48; under setting [2], 5.83 ± 0.091.

As for STRPEEGCSLHEEDTQRHETYHQQ [TCAP], the protein stability index reads like this: under setting [1], 5.47 ± 0.21; under setting [2], 5.47 ± 0.2.

Take SVAVAARHAQTISGHALRILIVDW [HDAC6]: the protein stability index under setting [1] came out at 2.82 ± 0.73 and the protein stability index under setting [2] stood at 2.62 ± 0.63.

As for SVILSVKFSPFGQWWASVGMDDFL [TLE6], the protein stability index by setting is: under setting [1], 3.22 ± 0.46; under setting [2], 3.02 ± 0.49.

Consider SVWGYDLGLRSLIPAVLTVSMLGY [MYORG], for which the protein stability index stood at 3.05 ± 0.29 under setting [1] and 3.06 ± 0.4 under setting [2].

With SWVLSMLYGFLLTFGFITMTPQLF [CLPTM1], the protein stability index is, setting by setting: under setting [1], 3.21 ± 0.47; under setting [2], 3.03 ± 0.16.

In turn, SYMLQDSLEHVQLFDLMRRMLEFD [CLK3] gave a protein stability index under setting [1] of 2.35 ± 0.027 and a protein stability index under setting [2] of 2.47 ± 0.21.

Consider TANTFRVMFKEPIEILPNVCYTAC [BTBD1], for which the protein stability index is, setting by setting: under setting [1], 2.46 ± 0.44; under setting [2], 2.18 ± 0.3.

For the sequence TAQSTFNDLQDLREQILRVKDTDD [RAP1B], the protein stability index runs as follows: under setting [1], 5.01 ± 0.31; under setting [2], 4.97 ± 0.27.

In the case of TDFKDKIVLDVGCGSGILSFFAAQ [CARM1], the protein stability index was 2.3 ± 0.43 under setting [1] and 2.27 ± 0.27 under setting [2].

With TDSPWIKPARKRRRRSRKKPSGAL [EHMT1], the protein stability index worked out at 5.2 ± 0.39 under setting [1] and 5.22 ± 0.47 under setting [2].

As to TEALGCDPPLSQDERTHRSDRPFK [ZNF8], the protein stability index came to 5.39 ± 0.28 under setting [1] and 5.26 ± 0.16 under setting [2].

Take TEPETAPTTEPETEPEDDRGPVVP [GNAS]: the protein stability index stood at 5.61 ± 0.14 under setting [1] and 5.63 ± 0.27 under setting [2].

With TFHDSKHNIVHVHFDATRGWLLTS [WDFY2], the protein stability index runs as follows: under setting [1], 2.44 ± 0.31; under setting [2], 2.17 ± 0.13.

Turning to TFKSFEDRVGTIKSKVVGDRENGS [TPD52L2], the protein stability index is 4.65 ± 0.062 under setting [1] and 4.7 ± 0.29 under setting [2].

Regarding TFRVSSDLIKHQRIHTEEKPYKCQ [ZNF75A], the protein stability index reads like this: under setting [1], 3.67 ± 0.15; under setting [2], 3.8 ± 0.23.

Turning to TFVNVYIASFIRGPNPSKLIQQFL [CDS2], the protein stability index by setting is: under setting [1], 2.4 ± 0.65; under setting [2], 2.73 ± 0.6.

Take TGFLIIILAIIAKEGDCAPEEKIW [MAGEA6]: the protein stability index was determined as 2.93 ± 0.65 under setting [1] and 2.71 ± 0.61 under setting [2].

Take TGPAWNVLMWTMLFLGQGIQVSLY [SOAT2]: the protein stability index was determined as 3.38 ± 0.42 under setting [1] and 3.26 ± 0.34 under setting [2].

With TGVVEFVRKEDMTYAVRKLDNTKF [SRSF1], the protein stability index came to 3.02 ± 0.3 under setting [1] and 3.26 ± 0.29 under setting [2].

Turning to THADMDGKRTPRGRRGWKKFYAVL [PSD2], the protein stability index by setting is: under setting [1], 2.65 ± 0.15; under setting [2], 2.9 ± 0.11.

Regarding THLEGDTVQIICNTGYRLQNNENN [CFHR2], the protein stability index is, setting by setting: under setting [1], 3.79 ± 0.22; under setting [2], 3.87 ± 0.14.

With THMYLQSDDEMELEETEPPLEPED [P3H4], the protein stability index stood at 5.4 ± 0.2 under setting [1] and 5.38 ± 0.29 under setting [2].

As to TIIEPAGESDNPLRFTSGLVVALD [INTS4], the protein stability index runs as follows: under setting [1], 3.07 ± 0.37; under setting [2], 3.24 ± 0.54.

TKHKCRQLTKASLKPRGCSKPPWR [SPACA9]: the protein stability index reads like this: under setting [1], 2.85 ± 0.4; under setting [2], 3.42 ± 0.47.

Sequence TKITSAFKYINTVISCTIFIVGMV [EDNRA] registered a protein stability index under setting [1] of 2.91 ± 1.1 and a protein stability index under setting [2] of 2.48 ± 1.

As to TKPQNLNDAYGPPSNFLEIDVSNP [SNX3], the protein stability index reads like this: under setting [1], 4.46 ± 0.42; under setting [2], 4.29 ± 0.47.

TKTEDRELVLRKDCPKIVEPHGKM [ZSCAN9] returned a protein stability index under setting [1] of 4.79 ± 0.083 and a protein stability index under setting [2] of 4.72 ± 0.28.

Take TLAGLRSRRLKQPKAFCLRDVAP [MIR22HG]: the protein stability index is 3.11 ± 0.44 (treatment: DMSO, c terminus: native) and 2.99 ± 0.21 (treatment: MLN4924 1 uM, 8 h, c terminus: native).

Turning to TLAQAHFNNGEYAEAEALYSAYIR [TTC32], the protein stability index amounted to 2.98 ± 0.27 under setting [1] and 3.39 ± 0.21 under setting [2].

For the sequence TLDKCGICQGDGSSCTHVTGNYRK [ADAMTSL2], the protein stability index runs as follows: under setting [1], 4.91 ± 0.35; under setting [2], 4.97 ± 0.33.

With TLDLSDLEAEKLVMFQRRYYKPGL [SCD], the protein stability index was determined as 2.54 ± 0.3 under setting [1] and 2.88 ± 0.35 under setting [2].

TLEQILEHLDNLRLNLTNTKQNFF [INTS3]: the protein stability index stood at 2.23 ± 0.54 under setting [1] and 2.31 ± 0.11 under setting [2].

For the sequence TLHGNVCSFCKRAFPSGHLLDAHI [ZNF511], the protein stability index is, setting by setting: under setting [1], 2.81 ± 0.27; under setting [2], 2.95 ± 0.46.

Consider TLIPTCKFYTWLWGVFYYFVSALG [SCD], for which the protein stability index was determined as 2 ± 0.52 under setting [1] and 2.13 ± 0.15 under setting [2].

Turning to TLLHFSAARGKERCVRVFLEHGAD [ASB7], the protein stability index worked out at 2 ± 0.2 under setting [1] and 2.21 ± 0.3 under setting [2].

In the case of TLPLTLIVILENIAVAWIYGTKKF [SLC6A17], the protein stability index under setting [1] turned out to be 3.03 ± 0.34 and the protein stability index under setting [2] amounted to 3.35 ± 0.43.

On to TLVEAIKEQDGREVDWEYFYGLLF [DFFB], for which the protein stability index stood at 2.46 ± 0.28 under setting [1] and 2.69 ± 0.63 under setting [2].
